# Laboratory results published in patent US20200199244A1 (published 2020).
# Where a chain is given by its changes, count along the chain named. “And” between values parts separate entries of the source, which are not always exact repeats. Equal values may be shown once.
# T1: Macaca fascicularis CD40 (Macaca fascicularis (cynomolgus monkey), UniProt P25942 21-277 (human entry))
# T1 chain: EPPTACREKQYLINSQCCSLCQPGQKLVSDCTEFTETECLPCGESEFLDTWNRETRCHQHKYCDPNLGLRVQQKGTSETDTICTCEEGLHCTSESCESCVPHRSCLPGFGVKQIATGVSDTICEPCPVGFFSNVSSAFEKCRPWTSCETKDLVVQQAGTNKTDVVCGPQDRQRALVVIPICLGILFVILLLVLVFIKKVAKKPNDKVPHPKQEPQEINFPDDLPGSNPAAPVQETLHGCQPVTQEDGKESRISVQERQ
# B1: BMS3h-296 (other)
# VH: EVQLLESGGGLVQPGGSLRLSCAASGFTFGAYPMYWVRQAPGKGLEWVSSIHKDGRITYYADSVKGRFTISRDNSKNTLYLQMNSLRAEDTAVYYCAKQGTPVDGFDYWGQGTLVTVSS
# B2: BMS3h-193-25 (other)
# VL: DIQMTQSPSSLSASVGDRVTITCRASQTIERRLNWYQQKPGKAPRLLIYLATRLQSGVPSRFSGSGSGTDFTLTISSLQPEDFATYYCHQYESPPLTFGQGTKVEIKR
# B3: BMS3h-287 (other)
# VH: EVQLLESGGGLVQPGGSLRLSCAASGFTFTNYRMSWVRQAPGKGLEWVSAIDDLGVSTYYADSVKGRFTISRDNSKNTLYLQMNSLRAEDTAVYYCAKWRLKNSQPTDFDYWGQGTLVTVSS
# B4: BMS3h-217-1 (other)
# VL: NIQMTQSPSSLSASVGDRVTITCRASHFIGTLLTWYQHKPGKAPKLLITYGSLLQSGVPSRFSGSGSGTDFTLTISSLQPEDFATYYCGQGVLWPATFGQGTKVEIKR
# B5: BMS3h-217-16 (other)
# VL: B4 VL with N1D, T34S, H38Q, G41R, A96P
# B6: BMS3h-217-8 (other)
# VL: B4 VL with N1D, T34S
# B7: BMS3h-217-6 (other)
# VL: B4 VL with N1D, T34S, H38Q, P44T, A96P
# B8: BMS3h-217-2 (other)
# VL: B4 VL with N1D, T34S, H38Q, G41R, Q79H, A96P
# B9: BMS3h-217-5 (other)
# VL: B4 VL with N1D, S10F, G30A, T34S, H38Q, A96P
# B10: BMS3h-217-23 (other)
# VL: B4 VL with N1D, T31S, T34S, H38V, K103T
# B11: BMS3h-217-14 (other)
# VL: B4 VL with N1D, M4L, T34S, H38Q, P44T, A96P
# B12: BMS3h-217-15 (other)
# VL: B4 VL with N1D, S12Y, A25V, T34S, H38Q, T74S, A96P, R108Q
# B13: BMS3h-217-4 (other)
# VL: B4 VL with N1D, G30A, T34S, H38Q, A96P
# B14: BMS3h-233 (other)
# VH: EVQLLESGGGLVQPGGSLRLSCAASGFTFAHYNMRWVRQAPGKGLEWVSTITKTGFRTYYADSVKGRFTISRDNSKNTLYLQMNSLRAEDTAVYYCAKAGQFDFDYWGQGTLVTVSS
# B15: BMS3h-257 (other)
# VH: EVQLLESGGGLVQPGGSLRLSCAASGFTFQNYQMAWVRQAPGKGLEWVSTISGTGKNTYYADSVKGRFTISRDNSKNTLYLQMNSLRAEDTAVYYCAKTPQNYFSVRRFDYWGQGTLVTVSS
# B16: BMS3h-275 (other)
# VH: EVQLLESGGGLVQPGGSLRLSCAASGFTFTRYQMGWVRQAPGKGLEWVSVINVWGSSTYYADSVKGRFTISRDNSKNTLYLQMNSLRAEDTAVYYCAKMSGKFAYWGQGTLVTVSS
# B17: BMS3h-240 (other)
# VH: EVQLLESGGGLVQPGGSLRLSCAASGFTFWVYDMRWVRQAPGKGLEWVSTISATGVHTYYADSVKGRFTISRDNSKNTLYLQMNSLRAEDTAVYYCAKYPPAGRFDYWGQGTLVTVSS
# B18: BMS3h-274 (other)
# VH: EVQLLESGGGLVQPGGSLRLSCAASGFTFDSYAMGWARQAPGKGLEWVSAIGAKGLSTYYADSVKGRFTISRDNSKNTLYLQMNSLRAEDTAVYYCAKAARGKFDYWGQGTLVTVSS
# B19: BMS3h-198 (other)
# VH: EVQLLESGGGLVQPGGSLRLSCAASGFTFAGYEMWWVRQAPGKGLERVSAISGSGGSTYYADSVKGRFTISRDDSKNTLYLQMNSLRAEDTAVYYCAKDPYSFDYWGQGTLVTVSS
# B20: BMS3h-231 (other)
# VH: EVQLLESGGGLVQPGGSLRLSCAASGFTFSAYNMWWARQAPGKGLEWVSWINSTGSRTYYADSVKGRFTISRDNSKNTLYLQMNSLRAEDTAVYYCAKNWHRGRFDYWGQGTLVTVSS
# B21: BMS3h-202 (other)
# VH: EVQLLESGGGLVQPGGSLRLSCAASGFTFPTAEMVWVRQAPGKGLEWVSSISASGGSTYYADSVKGRFTISRDNSKNTLYLQMNSLRAEDTAVYYCAKEPVSYVATFDYWGQGTLVTVSS
# B22: BMS3h-202-1 (other)
# VH: B21 VH with V35L, Q39K
# B23: BMS3h-43 (other)
# VH: EVQLLESGGGLVQPGGSLRLSCTASGFTFNMYEMSWVRQAPGKGLEWVSGISRRGFTTYYADSVKGRFTISRDNSKNTLYLQMNSLRAEDTAVYYCAKEPITYAMRYARFDYWGQGTLVTVSS
# notes: domain antibody (dAb): single human VH domain
# B24: BMS3h-131 (other)
# VL: DIQMTQSPSSLSASVGDRVTITCRANSSILWALAWYQQKPGKAPKLLIESSSGLQSGVPSRFSGSGSGTDFTLTISSLQPEDFATYYCVQNAGWPGTFGQGTKVEIKR
# notes: domain antibody (dAb): single human V kappa domain
# B25: BMS3h-106 (other)
# VH: EVQLLESGGGLVQPGGSLRLSCAASGFTFSTYHMQWVRQAPGKGLEWVSMIDADGLGTYYADSVKGRFTISRDNSKNTLYLQMNSLRAEDTAVYYCAKPGPQFGQFDYWGQGTLVTVSS
# notes: as for B23
# B26: BMS3h-197 (other)
# VH: EVQLLESGGGLVQPGGSLRLSCAASGFTFGSAAMDWVRQAPGKGLEWVSSINDMGSNTYYADSVKGRFTISRDNSKNTLYLQMNSLRAEDTAVYYCAKQGGRFDYWGQGTLVTVSS
# notes: as for B23
# B27: BMS3h-107 (other)
# VH: EVQLLESGGGLVQPGGSLRLSCAASGFTFSGYDMQWVRQAPGKGLEWVSTISASGVFTYYADSVKGRFTTSRDNSKNTLYLQMNSLRAEDTAVYYCAKYPNRFALNNFDYWGQGTLVTVSS
# notes: as for B23
# B28: BMS3h-202 (other)
# VH: B21 VH
# notes: as for B23
# Target: T1, Macaca fascicularis CD40
# Experiment: cell-based or functional assay
row,Binder,hIZCD40L-driven Cyno B Cell Proliferation EC50 [nM]
1,B1,> 7000
2,B2,2200
3,B3,918
4,B4,35
5,B5,7
6,B6,14
7,B7,10
8,B8,7
9,B9,15
10,B10,15
11,B11,8
12,B12,20
13,B13,27
14,B14,> 7000
15,B15,> 7000
16,B16,> 7000
17,B17,> 7000
18,B18,> 7000
19,B19,> 7000
20,B20,> 7000
21,B21,> 7000
22,B22,> 7000

# Target: human CD40 (human, UniProt P25942 21-277)
# Experiment: cell-based or functional assay
Binder,hIZCD40L-driven Human B Cell Proliferation EC50 [nM],CHO-hCD40L-driven DC Activation IL-12 EC50
B1,306,–
B2,303,–
B3,287,–
B4,45,–
B5,5,1120 nM
B6,33,–
B7,11,–
B8,8,335 nM
B10,16,–
B11,26,–
B12,47,–
B14,184,1490 nM and > 2000 nM
B15,135,704 nM
B16,157,–
B17,> 7000,–
B19,554,–
B20,328,–
B21,6400,–
B22,192,–

# Target: T2, biotinylated human CD40 (BMS) (human, UniProt P25942 21-193, limits assumed, biotinylated (sites not given))
# T2 construct: Ligand immobilised on the streptavidin BIAcore chip
# Experiment: BIAcore SPR, immobilised biotinylated human CD40, 1:1 fit;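 also: dAbs passed as doubling dilutions over CD40 chip at 25 °C in HBS-EP running buffer, 300 s dissociation, traces double-referenced against blank flow cell and buffer injection, global Langmuir fit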
Binder,Kd [nM],koff [s⁻¹],kon [M⁻¹ s⁻¹]
B23,2100,0.0031,1400
B24,930,0.022,24000
B25,350,0.046,130000
B26,180,0.014,81000
B27,850,0.17,200000
B28,2000,0.0035,1700
